In assay [1] the target is HLA-A*0201 (human). Briefly: inhibition of 125I probe peptide binding to purified HLA. The following applies: remark: other sources report otherwise.
A further assay has as its target HLA-A*0202 (human). The description is as above. Conditions: remark: other sources report otherwise.
Another assay deals with HLA-A*0206 (human). The description is as above. The following applies: remark: other sources report otherwise.
Assay [2] deals with HLA-A*0203 (human). Described as above. Conditions: remark: other sources report otherwise.
Assay [3] deals with HLA-A*0201 (human). The following applies: remark: other sources report otherwise.
Assay [4] has as its target HLA-A*2401 (purified HLA class I molecule) (human). Briefly: competition with 125I-labelled standard peptide for purified HLA, gel filtration. Background: Size exclusion chromatography separates by hydrodynamic size, large species first.
Another assay deals with HLA-A*2401 (human). Briefly: competition with 125I-labelled probe peptide for purified HLA, gel filtration.
In assay [5] the target is HLA-A*0201 (human). Conditions: remark: other sources report otherwise. This is another data set of the same source.
The target in assay [6] is HLA-A*0203 (human). The following applies: remark: other sources report otherwise.

A word on the IC50: it is the concentration that inhibits the measured activity by half. A low value points to higher potency.

Like-named read-outs stand apart in the source and are kept apart here. Bounds are passed on as bounds.

Consider SLSLGFLFLL [Peptide 1419.51 … (PAP.13)], for which, in the assay with HLA-A*0201 (human) [1], the IC50 is 40 nM.
Regarding DLPTQEPALGT [PSA position 136, 11 amino acids], the relative binding ratio with HLA-A*0202 (human) came out at 0.018; with HLA-A*0206 (human), 0.0001; with HLA-A*0203 (human) [2], 0.01; in the assay with HLA-A*0201 (human) [1], 0.0041.
In the assay with HLA-A*0201 (human) [3], ILLWQPIPV [PAP.135] showed an IC50 of under 200 nM.
In the case of RFAELVGPVI [PAP position 355, 10 amino acids], the relative binding ratio (IC50 of standard peptide / IC50 of test peptide) in assay [4] turned out to be 0.0037.
Molecule LLLARAASV [Peptide 60.0201 … (PAP.6.V9)] gave an IC50 with HLA-A*0206 (human) of 95 nM.
In turn, SLHLLSNDMCA [HuK2.175] had an IC50 with HLA-A*0201 (human) [3] of under 200 nM.
Take LLQERGVAYI [PSM.441]: the IC50 in the assay with HLA-A*0201 (human) [3] was under 200 nM.
As to GWGSIEPEEF [Kallikrein position 156, 10 amino acids], in the assay with HLA-A*2401 (human), the relative binding ratio (IC50 of standard peptide / IC50 of test peptide) is 0.0001.
Take LLARAASLSL [Peptide 20.0203 … (PAP.7)]: the IC50 with HLA-A*0202 (human) amounted to 5.2 nM; in the assay with HLA-A*0206 (human) it was 9250 nM; in the assay with HLA-A*0201 (human) [1] it was 500 nM.
With ALSVGCTGV [peptide 1418.15 (HuK2.9.V9)], the IC50 with HLA-A*0201 (human) [5] stood at 24 nM.
For AASLSLGFLFL [Peptide 63.0137 … (PAP.11)], the IC50 in the assay with HLA-A*0206 (human) came to 95 nM; in the assay with HLA-A*0201 (human) [1], 227 nM.
In the assay with HLA-A*0201 (human) [3], VLAGGFFLL [PSM.27] returned an IC50 of under 200 nM.
On the same count and under the same terms, the same measure for ALGTTCYA [PSA.143]: under 200 nM; for LLFFWLDRSV [PAP.21]: under 200 nM.
In the case of GLPSIPVHPI [PSM.288], the IC50 with HLA-A*0201 (human) [3] was under 200 nM.
The molecule LLFFWLDRSV [Peptide 1097.09 … (PAP.21)] came in with a 50% inhibitory concentration (IC50) in the assay with HLA-A*0202 (human) of 0.6 nM.
With LMLLRLSEPA [PSA.117], the IC50 with HLA-A*0201 (human) [3] was under 200 nM.
For the molecule GFLFLLFFW [PAP position 17, 9 amino acids], the relative binding ratio (IC50 of standard peptide / IC50 of test peptide) with HLA-A*2401 (human) worked out at 0.0016.
With FLFLLFFWV [Peptide 60.0203 … (PAP.18.V9)], the IC50 with HLA-A*0202 (human) worked out at 307 nM; with HLA-A*0203 (human) [2] it was 625 nM.
The molecule IMYSAHDTTV [PAP.284] returned an IC50 with HLA-A*0201 (human) [3] of under 200 nM.
The molecule LLLARAASL [Peptide 20.0044 … (PAP.6)] displayed an IC50 with HLA-A*0201 (human) [1] of 208 nM.
Molecule LLFFWLDRSVL [Peptide 63.0139 … (PAP.21)] registered an IC50 with HLA-A*0206 (human) of 822 nM.
On to VLAKELKFVTL [Peptide 63.0142 … (PAP.30)], for which the IC50 with HLA-A*0202 (human) came to 8.1 nM; with HLA-A*0201 (human) [1], 6.9 nM.
Turning to FLNESYKHEQV [Peptide 1419.55 … (PAP.92)], in the assay with HLA-A*0206 (human), the IC50 was 381 nM.
HYRKWIKDTI [Kallikrein position 248, 10 amino acids]: the relative binding ratio (IC50 of standard peptide / IC50 of test peptide) with HLA-A*2401 (human) was determined as 0.055.
The same measure, in the same setting: the same measure for GFLFLLFFWL [PAP position 17, 10 amino acids]: 0.0007; for DFIATLGKL [PAP position 186, 9 amino acids]: 0.0002; for EYIRKRYRKF [PAP position 83, 10 amino acids]: 0.0067.
KLQCVDLHV [PSA.166] came in with a half-inhibitory concentration (IC50) in the assay with HLA-A*0201 (human) [3] of under 200 nM.
Regarding VFRHGDRSPI [PAP position 41, 10 amino acids], the relative binding ratio (IC50 of standard peptide / IC50 of test peptide) in assay [4] stood at 0.0005.
In turn, VLAKELKFV [PAP.30] displayed an IC50 with HLA-A*0201 (human) [3] of under 200 nM.
Regarding IWSKVYDPL [PAP position 205, 9 amino acids], the relative binding ratio (IC50 of standard peptide / IC50 of test peptide) with HLA-A*2401 (human) amounted to 0.0024.
Take DLPTQEPAL [PSA position 136, 9 amino acids]: in the assay with HLA-A*0201 (human) [1], the relative binding ratio was 0.0003.
As for CYASGWGSI [Kallikrein position 152, 9 amino acids], the relative binding ratio (IC50 of standard peptide / IC50 of test peptide) with HLA-A*2401 (human) is 0.17.
In turn, ALDVYNGLL [PAP.299] had an IC50 in the assay with HLA-A*0201 (human) [3] of under 200 nM.
In the assay with HLA-A*0201 (human) [3], ALFDIESKV [PSM.711] had an IC50 of under 200 nM.
Molecule QLMFLERAFI [PSM.667] showed a half-maximal inhibitory concentration (IC50) with HLA-A*0201 (human) [3] of under 200 nM.
Regarding DLMLLRLSEPV [peptide 63.0109 (HuK2.120.V11)], the IC50 with HLA-A*0201 (human) [5] was 50 nM.
Turning to PYASCHLTEL [PAP position 309, 10 amino acids], in [4], the relative binding ratio (IC50 of standard peptide / IC50 of test peptide) came out at 0.024.
For FLRPRSLQCV [HuK2.165], the IC50 with HLA-A*0201 (human) [3] was under 200 nM.
With CARAYSEKVT [Kallikrein position 184, 10 amino acids], the relative binding ratio is 0.003 with HLA-A*0206 (human), 0.02 with HLA-A*0203 (human) [2] and 0.0074 in the assay with HLA-A*0201 (human) [1].
Consider CAGRWTGGKST [PSA position 194, 11 amino acids], for which the relative binding ratio with HLA-A*0202 (human) is 0.037; in the assay with HLA-A*0206 (human), 0.0002; with HLA-A*0203 (human) [2] it was 0.025; with HLA-A*0201 (human) [1], 0.0013.
Turning to LLARAASLSV [Peptide 63.0031 … (PAP.7.V10)], the half-inhibitory concentration (IC50) with HLA-A*0202 (human) worked out at 10 nM; in the assay with HLA-A*0206 (human), 378 nM.
On to AMTNLAALF [PAP position 116, 9 amino acids], for which the relative binding ratio (IC50 of standard peptide / IC50 of test peptide) with HLA-A*2401 (human) was 0.015.
FLRPRSLQCV [peptide 1419.07 (HuK2.165)] showed an IC50 with HLA-A*0203 (human) [6] of 4.2 nM.
On to MLLRLSEPA [PSA.118 (9-mer …)], for which the IC50 in the assay with HLA-A*0201 (human) [3] was under 200 nM.
With CALPERPSLYT [PSA position 230, 11 amino acids], the relative binding ratio in the assay with HLA-A*0206 (human) worked out at 0.0016; with HLA-A*0203 (human) [2], 0.0071; with HLA-A*0201 (human) [1], 0.0008.
Take SYKHEQVYI [PAP position 96, 9 amino acids]: in assay [4], the relative binding ratio (IC50 of standard peptide / IC50 of test peptide) came to 0.26.
The molecule FLNESYKHEQV [PAP.92] gave a half-maximal inhibitory concentration (IC50) with HLA-A*0201 (human) [3] of under 200 nM.
On to GMPEGDLVYV [PSM.168], for which the IC50 with HLA-A*0201 (human) [3] was under 200 nM.
For RMMNDQLMFL [PSM.662], in the assay with HLA-A*0201 (human) [3], the IC50 was under 200 nM.
LVLAGGFFL [PSM.26] registered an IC50 with HLA-A*0201 (human) [3] of under 200 nM.
With PYKDFIATL [PAP position 183, 9 amino acids], the relative binding ratio (IC50 of standard peptide / IC50 of test peptide) in assay [4] came out at 0.11.
Regarding FFWLDRSVL [PAP position 23, 9 amino acids], the relative binding ratio (IC50 of standard peptide / IC50 of test peptide) in the assay with HLA-A*2401 (human) is 0.0017.
Turning to RFQELESETL [PAP position 163, 10 amino acids], the relative binding ratio (IC50 of standard peptide / IC50 of test peptide) in [4] stood at 0.0001.
For FLTPKKLQCV [PSA.161], the IC50 with HLA-A*0201 (human) [3] is under 200 nM.
SWPQGFGQL [PAP position 62, 9 amino acids]: the relative binding ratio (IC50 of standard peptide / IC50 of test peptide) in assay [4] worked out at 0.0013.

(Values after US20040037843A1.)
